tested on: Escherichia coli TOP10; experiment: shrunken log2 fold change of peptide-encoding DNA abundance (4.5 h post-induction vs induction); higher = less antimicrobial activity (less host growth inhibition); conditions: time post-induction: 4.5 h; library: site-saturation at positions 5, 18, 19, 20
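Further: peptides expressed intracellularly from a pBAD plasmid library in pooled LB shake-flask culture, induced with 0.3% L-arabinose, DNA abundance read by NGS, three biological replicates, DESeq2 with apeglm shrinkage.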

Row | Sequence | shrunken log2 fold change
1 | RRIRKRPPRLPRPRPRPWWQPRP | 0.0795
2 | RRIRFRPPRLPRPRPRPDQVPRP | 0.0246
3 | RRIRMRPPRLPRPRPRPEEYPRP | 0.0514
4 | RRIRARPPRLPRPRPRPWPAPRP | 0.17
5 | RRIRLRPPRLPRPRPRPSLAPRP | 0.13
6 | RRIRTRPPRLPRPRPRPPCLPRP | -0.0659
7 | RRIRHRPPRLPRPRPRPFDWPRP | -0.0238
8 | RRIRKRPPRLPRPRPRPNHLPRP | -0.0502
9 | RRIRARPPRLPRPRPRPVHMPRP | -0.00775
10 | RRIRNRPPRLPRPRPRPPAQPRP | 0.314
11 | RRIRNRPPRLPRPRPRPPEEPRP | -0.032
12 | RRIRHRPPRLPRPRPRPTHKPRP | 0.0457
13 | RRIRFRPPRLPRPRPRPQPQPRP | 0.301
14 | RRIRYRPPRLPRPRPRPVGCPRP | -0.284
15 | RRIRFRPPRLPRPRPRPIFDPRP | -0.268
16 | RRIRGRPPRLPRPRPRPAETPRP | -0.0775
17 | RRIRHRPPRLPRPRPRPLNEPRP | -0.124
18 | RRIRSRPPRLPRPRPRPEYIPRP | -0.0603
19 | RRIRIRPPRLPRPRPRPKFSPRP | -0.244
20 | RRIRCRPPRLPRPRPRPINNPRP | -0.633
21 | RRIRSRPPRLPRPRPRPWCAPRP | 0.0451
22 | RRIRARPPRLPRPRPRPGHNPRP | -0.0862
23 | RRIRGRPPRLPRPRPRPFVNPRP | -0.0813
24 | RRIRVRPPRLPRPRPRPERMPRP | -0.0652
25 | RRIRFRPPRLPRPRPRPKWWPRP | -0.0582

Row | Sequence | shrunken log2 fold change
26 | RRIRRRPPRLPRPRPRPEDKPRP | 0.103
27 | RRIRWRPPRLPRPRPRPMMEPRP | 0.134
28 | RRIRLRPPRLPRPRPRPGVNPRP | 0.0348
29 | RRIRQRPPRLPRPRPRPFVFPRP | -0.273
30 | RRIRARPPRLPRPRPRPDARPRP | 0.355
31 | RRIRIRPPRLPRPRPRPHVMPRP | -0.492
32 | RRIRNRPPRLPRPRPRPCYAPRP | -0.424
33 | RRIRFRPPRLPRPRPRPNDDPRP | -0.755
34 | RRIRGRPPRLPRPRPRPISWPRP | -0.0765
35 | RRIRFRPPRLPRPRPRPMYQPRP | -0.167
36 | RRIRWRPPRLPRPRPRPETMPRP | 0.569
37 | RRIRMRPPRLPRPRPRPPAPPRP | 2.01
38 | RRIRLRPPRLPRPRPRPRFSPRP | 0.0406
39 | RRIRVRPPRLPRPRPRPWPLPRP | -0.183
40 | RRIRQRPPRLPRPRPRPCHRPRP | 0.0197
41 | RRIRSRPPRLPRPRPRPKVPPRP | 0.0195
42 | RRIRDRPPRLPRPRPRPRTHPRP | -0.188
43 | RRIRMRPPRLPRPRPRPKVFPRP | 0.0743
44 | RRIRYRPPRLPRPRPRPEHTPRP | -0.303
45 | RRIRHRPPRLPRPRPRPERSPRP | 0.0418
46 | RRIRQRPPRLPRPRPRPNEWPRP | -0.00822
47 | RRIRIRPPRLPRPRPRPTKNPRP | -0.355
48 | RRIRFRPPRLPRPRPRPMKVPRP | -0.344
49 | RRIRHRPPRLPRPRPRPSKDPRP | -0.293
50 | RRIRHRPPRLPRPRPRPFCSPRP | -0.171

Row | Sequence | shrunken log2 fold change
51 | RRIRPRPPRLPRPRPRPGQHPRP | 0.0653
52 | RRIRMRPPRLPRPRPRPDLSPRP | 1.58
53 | RRIRARPPRLPRPRPRPIEHPRP | 0.126
54 | RRIRVRPPRLPRPRPRPWADPRP | -0.0322
55 | RRIRGRPPRLPRPRPRPIQDPRP | 0.391
56 | RRIRQRPPRLPRPRPRPYLLPRP | -0.0483
57 | RRIRFRPPRLPRPRPRPCGCPRP | -0.0484
58 | RRIRHRPPRLPRPRPRPWADPRP | -0.36
59 | RRIRERPPRLPRPRPRPSPAPRP | -0.0943
60 | RRIRPRPPRLPRPRPRPRKQPRP | 0.0406
61 | RRIRMRPPRLPRPRPRPRMRPRP | 1.41
62 | RRIRNRPPRLPRPRPRPKDEPRP | 0.536
63 | RRIRIRPPRLPRPRPRPHLHPRP | -0.784
64 | RRIRPRPPRLPRPRPRPKSMPRP | -0.37
65 | RRIRGRPPRLPRPRPRPLSCPRP | 0.276
66 | RRIRCRPPRLPRPRPRPHSHPRP | -0.307
67 | RRIRARPPRLPRPRPRPGDEPRP | 0.393
68 | RRIRARPPRLPRPRPRPLPQPRP | 0.64
69 | RRIRERPPRLPRPRPRPYYRPRP | -0.165
70 | RRIRKRPPRLPRPRPRPELEPRP | 0.0875
71 | RRIRPRPPRLPRPRPRPIWYPRP | -0.0201
72 | RRIRSRPPRLPRPRPRPMWGPRP | -0.0451
73 | RRIRLRPPRLPRPRPRPYMCPRP | -0.252
74 | RRIRIRPPRLPRPRPRPFSWPRP | 0.0705
75 | RRIRSRPPRLPRPRPRPGPNPRP | -0.0665

Row | Sequence | shrunken log2 fold change
76 | RRIRLRPPRLPRPRPRPWCGPRP | -0.0859
77 | RRIRFRPPRLPRPRPRPPDRPRP | 0.128
78 | RRIRCRPPRLPRPRPRPIVNPRP | -0.239
79 | RRIRTRPPRLPRPRPRPVREPRP | 0.139
80 | RRIRSRPPRLPRPRPRPGEGPRP | 0.367
81 | RRIRERPPRLPRPRPRPDPFPRP | -0.102
82 | RRIRARPPRLPRPRPRPEIYPRP | -0.0195
83 | RRIRQRPPRLPRPRPRPACKPRP | -0.0465
84 | RRIRYRPPRLPRPRPRPSKQPRP | -0.137
85 | RRIRRRPPRLPRPRPRPQKTPRP | -0.019
86 | RRIRVRPPRLPRPRPRPCTQPRP | -0.322
87 | RRIRPRPPRLPRPRPRPAFMPRP | -0.0434
88 | RRIRDRPPRLPRPRPRPIKKPRP | 0.0559
89 | RRIRGRPPRLPRPRPRPSEVPRP | 0.425
90 | RRIRDRPPRLPRPRPRPTTQPRP | 0.831
91 | RRIRVRPPRLPRPRPRPYHMPRP | -0.305
92 | RRIRNRPPRLPRPRPRPTSCPRP | -0.173
93 | RRIRYRPPRLPRPRPRPSTGPRP | -0.0197
94 | RRIRVRPPRLPRPRPRPADGPRP | 0.000767
95 | RRIRSRPPRLPRPRPRPPEYPRP | -0.154
96 | RRIRGRPPRLPRPRPRPFWLPRP | 0.299
97 | RRIRYRPPRLPRPRPRPPNDPRP | -0.151
98 | RRIRVRPPRLPRPRPRPSSLPRP | -0.334
99 | RRIRERPPRLPRPRPRPCEPPRP | 0.123
100 | RRIRIRPPRLPRPRPRPGKNPRP | -0.597

Row | Sequence | shrunken log2 fold change
101 | RRIRKRPPRLPRPRPRPALDPRP | 0.772
102 | RRIRHRPPRLPRPRPRPCFEPRP | -0.114
103 | RRIRKRPPRLPRPRPRPAIFPRP | 0.233
104 | RRIRKRPPRLPRPRPRPPGSPRP | 0.618
105 | RRIRRRPPRLPRPRPRPKPLPRP | 0.474
106 | RRIRHRPPRLPRPRPRPYHEPRP | -0.0135
107 | RRIRPRPPRLPRPRPRPNGLPRP | 0.015
108 | RRIRTRPPRLPRPRPRPQSRPRP | -0.0689
109 | RRIRNRPPRLPRPRPRPEKSPRP | 0.31
110 | RRIRLRPPRLPRPRPRPMVQPRP | -0.147
111 | RRIRGRPPRLPRPRPRPNVSPRP | -0.0528
112 | RRIRHRPPRLPRPRPRPDGIPRP | -0.0529
113 | RRIRYRPPRLPRPRPRPVPMPRP | -0.158
114 | RRIRFRPPRLPRPRPRPENGPRP | -0.166
115 | RRIRLRPPRLPRPRPRPCILPRP | -0.411
116 | RRIRNRPPRLPRPRPRPTATPRP | 0.433
117 | RRIRHRPPRLPRPRPRPWLGPRP | -0.0973
118 | RRIRNRPPRLPRPRPRPGDGPRP | 0.292
119 | RRIRTRPPRLPRPRPRPYTLPRP | -0.000759
120 | RRIRARPPRLPRPRPRPTILPRP | 0.344
121 | RRIRYRPPRLPRPRPRPRICPRP | 0.00835
122 | RRIRKRPPRLPRPRPRPGNIPRP | -0.0196
123 | RRIRERPPRLPRPRPRPLQEPRP | -0.154
124 | RRIRWRPPRLPRPRPRPAYFPRP | 0.125
125 | RRIRERPPRLPRPRPRPKCPPRP | 0.0136

Row | Sequence | shrunken log2 fold change
126 | RRIRMRPPRLPRPRPRPQIFPRP | -0.0615
127 | RRIRSRPPRLPRPRPRPCKCPRP | -0.359
128 | RRIRRRPPRLPRPRPRPVHSPRP | -0.0233
129 | RRIRPRPPRLPRPRPRPVDKPRP | -0.153
130 | RRIRMRPPRLPRPRPRPAFEPRP | 0.763
131 | RRIRLRPPRLPRPRPRPDFLPRP | -0.181
132 | RRIRIRPPRLPRPRPRPVCQPRP | -0.202
133 | RRIRQRPPRLPRPRPRPPASPRP | 0.191
134 | RRIRFRPPRLPRPRPRPDSCPRP | -0.011
135 | RRIRVRPPRLPRPRPRPIEWPRP | -0.000773
136 | RRIRYRPPRLPRPRPRPEINPRP | 0.0373
137 | RRIRPRPPRLPRPRPRPHHVPRP | 0.0547
138 | RRIRGRPPRLPRPRPRPTKKPRP | 0.689
139 | RRIRNRPPRLPRPRPRPFYVPRP | -0.181
140 | RRIRYRPPRLPRPRPRPWASPRP | -0.154
141 | RRIRSRPPRLPRPRPRPTRSPRP | 0.784
142 | RRIRMRPPRLPRPRPRPDKTPRP | 0.00408
143 | RRIRARPPRLPRPRPRPYMQPRP | -0.53
144 | RRIRTRPPRLPRPRPRPMQLPRP | -0.191
145 | RRIRWRPPRLPRPRPRPSWTPRP | -0.0457
146 | RRIRQRPPRLPRPRPRPEGTPRP | 0.231
147 | RRIRVRPPRLPRPRPRPDVDPRP | -0.367
148 | RRIRERPPRLPRPRPRPIDGPRP | 0.0442
149 | RRIRRRPPRLPRPRPRPMSCPRP | 0.0813
150 | RRIRTRPPRLPRPRPRPCSQPRP | -0.018

Reference: the supplement of paper PMC9112550, “Optimization of the antimicrobial peptide Bac7 by deep mutational scanning” (BMC Biology, 2022)
